We go through 2 molecules from patent publication US20120135912A1 (PERSEID THERAPEUTICS, published 2012).

As usually defined, the Kd is a measure of binding affinity in units of concentration. Read a low Kd as higher affinity.

Assay [1] addresses T1, human VLA4-Fc (alpha4-Fc/beta1-Fc heterodimer) (human).
T1 construct: Soluble heterodimer from CHO cells, Protein A purified; also called VLA-Fc
Briefly: SPR (BIACORE), retest with new polypeptide preparations and new VLA4-Fc; retested with new polypeptide preparations and new VLA-Fc ligand (Table 5B). The procedure: The kinetic 2D-VCAM-1 assay measures binding kinetics of a dimeric ligand (e.g., VLA-Fc fusion protein or LPAM-1-Fc fusion protein) coated to sensor chips and monomeric analyte (e.g., 2D-VCAM-1 variant polypeptides) in the mobile phase. Goat anti-human IgG antibody (Jackson ImmunoResearch, Catalog No. 105-005-098) was immobilized on CM-5 sensor chips (GE Healthcare, Catalog No. BR-1000-14) according to the manufacturer's protocol. Antibody was diluted to 30 μg/ml in immobilization buffer (10 mM sodium acetate, pH 5.0 (GE Healthcare, Catalog No. BR-1003-51)). […] Un-reacted sites were quenched with 35 μl of 1 M ethanolamine-HCl pH 8.5 (GE Healthcare, Catalog No. BR-1000-50). This procedure typically yielded 15,000 response units (RU) of coupled antibody. VLA4-Fc or LPAM-1-Fc, prepared as described in Examples 3 and 4, respectively, were bound to antibody-coated sensor chips by injection of 20 μl of ligand solution (20 μg/ml protein in HBS-P-Mn buffer at a flow rate of 10 μl/min). Ligand capture levels were typically 200-300 RU. […] Typically, 8 dilutions of 2D-VCAM-1 variant polypeptides ranging from 150 nM to 0.069 nM were analyzed against a blank reference (HBS-P-Mn buffer alone).

The target in assay [2] is T2, human VLA4 (integrin alpha4beta1) on the surface of U937 cells (human, UniProt P13612 34-1032; P05556 21-798).
T2 construct: whole, on cells; Endogenous VLA4 of U937 cells; assay buffer held 1 mM each of CaCl2, MgCl2 and MnCl2; also called cell-surface human VLA4
Briefly: static cell adhesion assay: U937 cells on immobilized 7D-VCAM-1 in the presence of the soluble polypeptide; blocked ligand: immobilized 7D-VCAM-1 (Example 13). The procedure:
Prior to assaying, the U937 cells were re-suspended in labeling buffer (RPMI 1640 culture media without phenol red, 10% FBS; Invitrogen), then labeled with 0.5 μg/ml Calcein-AM at 37° C. for 30 minutes on a rotator. Subsequently, the cells were washed three times with labeling buffer then resuspended at 5×10^6 cells/ml in assay buffer (HEPES CaMgMn buffer: 50 mM HEPES, 150 mM NaCl, 1 mM CaCl₂, 1 mM MgCl₂, 1 mM MnCl2 pH 7.4).
The test compounds (i.e., the 2D-VCAM-1 variant polypeptides) were diluted in dilution buffer and added to VCAM-1-coated plates. […] Plates were spun down at 280×g for 5 minutes with assay buffer decanted by inversion before measuring fluorescence intensity (excitation=485 nm, emission=530 nm) with LJL Analyst HT 96.384 (Molecular Devices, Sunnyvale, Calif.).
FIG. 5 is a graph showing the cell adhesion index for anti-VLA4-antibody (used as a positive control for maximal inhibition of cell adherence), dilution buffer alone (“no treatment”, a control to show maximal cell adherence to the immobilized VCAM-1), 2D-VCAM-1 valiant Clone 46 (SEQ ID NO:12), Q38L-2D-VCAM-1 polypeptide (SEQ ID NO:10), and human 2D-VCAM-1 (SEQ ID NO:2). The cell adhesion index was calculated as (fluorescence intensity, VCAM-coated well)/(fluorescence intensity, non-CAM-1-coated well). […]

T2 sequence (P13612 34-1032, chain 1 of 2): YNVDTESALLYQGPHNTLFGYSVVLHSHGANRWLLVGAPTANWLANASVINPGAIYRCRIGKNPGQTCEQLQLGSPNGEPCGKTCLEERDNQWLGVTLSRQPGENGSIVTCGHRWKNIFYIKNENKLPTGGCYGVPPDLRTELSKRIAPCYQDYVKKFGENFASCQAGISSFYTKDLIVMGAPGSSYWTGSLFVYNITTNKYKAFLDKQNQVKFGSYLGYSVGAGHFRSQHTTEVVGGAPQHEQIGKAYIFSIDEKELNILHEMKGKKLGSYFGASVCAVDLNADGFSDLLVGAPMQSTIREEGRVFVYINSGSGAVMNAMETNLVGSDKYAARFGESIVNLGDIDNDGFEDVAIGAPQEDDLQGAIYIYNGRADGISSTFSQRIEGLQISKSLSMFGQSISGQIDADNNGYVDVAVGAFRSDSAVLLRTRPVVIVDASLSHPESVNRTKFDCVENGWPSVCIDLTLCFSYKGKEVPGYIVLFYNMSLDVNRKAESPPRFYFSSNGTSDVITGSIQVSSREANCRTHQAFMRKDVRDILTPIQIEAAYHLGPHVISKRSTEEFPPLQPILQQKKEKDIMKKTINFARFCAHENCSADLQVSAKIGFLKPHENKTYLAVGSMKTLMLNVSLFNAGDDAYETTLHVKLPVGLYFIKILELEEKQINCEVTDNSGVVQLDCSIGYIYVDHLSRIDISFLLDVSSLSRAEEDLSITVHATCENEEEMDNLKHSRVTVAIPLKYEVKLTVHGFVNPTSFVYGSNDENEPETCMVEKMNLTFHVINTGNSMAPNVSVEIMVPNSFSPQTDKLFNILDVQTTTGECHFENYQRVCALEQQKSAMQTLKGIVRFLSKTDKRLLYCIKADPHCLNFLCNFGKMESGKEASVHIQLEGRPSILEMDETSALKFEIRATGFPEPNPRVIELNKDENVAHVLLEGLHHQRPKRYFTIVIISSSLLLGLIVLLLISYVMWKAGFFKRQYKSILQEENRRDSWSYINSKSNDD
T2 sequence (P05556 21-798, chain 2 of 2): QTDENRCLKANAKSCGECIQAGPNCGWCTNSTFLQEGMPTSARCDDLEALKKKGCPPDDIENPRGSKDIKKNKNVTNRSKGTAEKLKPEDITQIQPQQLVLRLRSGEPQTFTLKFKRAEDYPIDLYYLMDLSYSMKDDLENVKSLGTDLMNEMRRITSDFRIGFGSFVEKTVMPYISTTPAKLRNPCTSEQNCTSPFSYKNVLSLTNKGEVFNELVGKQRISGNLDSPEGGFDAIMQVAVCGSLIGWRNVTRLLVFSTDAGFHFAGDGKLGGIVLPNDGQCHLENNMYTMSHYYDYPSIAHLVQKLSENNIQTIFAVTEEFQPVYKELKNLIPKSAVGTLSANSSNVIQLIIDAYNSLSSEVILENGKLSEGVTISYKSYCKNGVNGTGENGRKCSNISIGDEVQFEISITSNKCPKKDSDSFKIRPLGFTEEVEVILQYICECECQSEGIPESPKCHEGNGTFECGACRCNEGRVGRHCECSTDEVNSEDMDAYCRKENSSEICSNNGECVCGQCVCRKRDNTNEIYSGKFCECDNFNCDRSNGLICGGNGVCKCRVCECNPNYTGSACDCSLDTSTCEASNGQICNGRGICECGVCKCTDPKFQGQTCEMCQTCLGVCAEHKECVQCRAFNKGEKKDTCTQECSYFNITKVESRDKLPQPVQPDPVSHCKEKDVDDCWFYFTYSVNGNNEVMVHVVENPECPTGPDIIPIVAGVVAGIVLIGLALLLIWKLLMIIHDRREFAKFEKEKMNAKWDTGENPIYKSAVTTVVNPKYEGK
T1 sequence (chain, as listed by the source limits assumed, form in doubt, chain 1 of 2): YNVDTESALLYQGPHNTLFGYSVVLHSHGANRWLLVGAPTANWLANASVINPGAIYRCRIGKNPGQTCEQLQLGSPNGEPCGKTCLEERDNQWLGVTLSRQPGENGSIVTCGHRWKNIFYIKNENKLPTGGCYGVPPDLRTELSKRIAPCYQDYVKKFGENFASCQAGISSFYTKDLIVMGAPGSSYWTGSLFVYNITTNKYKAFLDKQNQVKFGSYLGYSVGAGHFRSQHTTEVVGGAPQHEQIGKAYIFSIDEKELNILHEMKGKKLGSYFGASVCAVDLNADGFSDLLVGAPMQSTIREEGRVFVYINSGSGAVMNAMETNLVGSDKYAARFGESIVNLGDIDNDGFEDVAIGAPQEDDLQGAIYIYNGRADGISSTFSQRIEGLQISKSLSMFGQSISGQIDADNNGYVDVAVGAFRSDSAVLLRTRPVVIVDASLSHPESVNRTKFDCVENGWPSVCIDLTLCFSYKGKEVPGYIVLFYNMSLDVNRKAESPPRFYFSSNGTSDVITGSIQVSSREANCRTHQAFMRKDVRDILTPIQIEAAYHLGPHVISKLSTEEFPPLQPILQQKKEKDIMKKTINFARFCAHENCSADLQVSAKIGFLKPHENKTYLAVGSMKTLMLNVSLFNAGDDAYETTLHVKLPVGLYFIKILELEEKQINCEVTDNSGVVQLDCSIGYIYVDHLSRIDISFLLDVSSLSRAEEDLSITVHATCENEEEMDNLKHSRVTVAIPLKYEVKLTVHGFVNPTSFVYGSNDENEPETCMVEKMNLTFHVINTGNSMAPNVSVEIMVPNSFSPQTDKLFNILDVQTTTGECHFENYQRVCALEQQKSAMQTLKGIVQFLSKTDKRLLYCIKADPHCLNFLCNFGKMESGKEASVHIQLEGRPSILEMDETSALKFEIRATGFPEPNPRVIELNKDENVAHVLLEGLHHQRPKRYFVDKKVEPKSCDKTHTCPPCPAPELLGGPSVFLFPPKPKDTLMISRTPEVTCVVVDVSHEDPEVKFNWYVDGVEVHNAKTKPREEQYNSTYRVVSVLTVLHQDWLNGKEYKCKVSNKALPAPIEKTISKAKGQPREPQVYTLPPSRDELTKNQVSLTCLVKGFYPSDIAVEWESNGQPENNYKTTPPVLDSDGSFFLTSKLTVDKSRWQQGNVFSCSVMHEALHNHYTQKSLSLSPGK
T1 sequence (chain, as listed by the source limits assumed, form in doubt, chain 2 of 2): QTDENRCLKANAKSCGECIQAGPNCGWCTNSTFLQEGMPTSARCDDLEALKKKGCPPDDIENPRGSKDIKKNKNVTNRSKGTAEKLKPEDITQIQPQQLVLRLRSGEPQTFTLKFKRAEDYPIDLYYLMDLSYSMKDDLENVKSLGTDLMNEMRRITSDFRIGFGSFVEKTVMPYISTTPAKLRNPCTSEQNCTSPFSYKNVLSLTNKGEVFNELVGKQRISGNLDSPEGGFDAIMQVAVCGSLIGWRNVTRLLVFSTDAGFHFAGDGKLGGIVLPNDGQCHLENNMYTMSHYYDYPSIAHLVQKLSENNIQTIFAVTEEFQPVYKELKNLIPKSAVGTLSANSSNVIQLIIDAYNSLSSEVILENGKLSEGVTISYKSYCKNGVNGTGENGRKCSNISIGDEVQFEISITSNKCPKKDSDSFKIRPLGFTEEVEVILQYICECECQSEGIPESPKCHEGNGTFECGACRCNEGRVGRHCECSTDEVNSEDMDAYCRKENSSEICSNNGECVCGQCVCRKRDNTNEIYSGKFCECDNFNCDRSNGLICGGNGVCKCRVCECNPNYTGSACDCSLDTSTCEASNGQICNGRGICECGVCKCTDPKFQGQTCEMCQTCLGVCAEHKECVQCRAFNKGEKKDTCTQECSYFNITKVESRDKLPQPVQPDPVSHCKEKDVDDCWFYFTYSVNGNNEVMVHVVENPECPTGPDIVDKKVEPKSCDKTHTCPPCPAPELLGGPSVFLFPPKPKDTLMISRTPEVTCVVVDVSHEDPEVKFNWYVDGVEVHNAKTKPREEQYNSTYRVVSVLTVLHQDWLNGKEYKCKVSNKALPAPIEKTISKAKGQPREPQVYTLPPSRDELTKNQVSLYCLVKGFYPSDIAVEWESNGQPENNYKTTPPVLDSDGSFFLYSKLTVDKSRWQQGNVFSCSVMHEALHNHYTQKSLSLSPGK

B1: 2D-VCAM-1 variant Clone 146 (ligand, not shown: small tags and cut ends)
chain: FKIETTPESRYLAQIGDSVSLTCSTTGCESPLFFWRPLLDSPLNGKVTNEGTTSTLTMNPVSFGNEHSYLCTARCESRSLEKGIQVEIYSFPKDPEIHLSGPLEAGKPITVKCSVADVYPFDRLEIDLLKGDHLMKSQEFLEDADRKSLETKSLEVTFTPVIEDIGKVLVCRAKLHIDEMDSVPTVRQAVKELQVYISP
Take B1: the equilibrium dissociation constant (Kd) in assay [1] turned out to be 0.018 nM.

B2: Q38L-2D-VCAM-1 (ligand)
chain: FKIETTPESRYLAQIGDSVSLTCSTTGCESPFFSWRTLIDSPLNGKVTNEGTTSTLTMNPVSFGNEHSYLCTATCESRKLEKGIQVEIYSFPKDPEIHLSGPLEAGKPITVKCSVADVYPFDRLEIDLLKGDHLMKSQEFLEDADRKSLETKSLEVTFTPVIEDIGKVLVCRAKLHIDEMDSVPTVRQAVKELQVYISP
notes: also called Q38L 2D-VCAM-1 polypeptide; not shown: His tag
As for B2, in assay [2], the binding result is “binds”.
